Measurements from patent JP2000236884A.

Molecular target: ヒトIL−18 (human interleukin-18, polypeptide having the amino acid sequence of SEQ ID NO 21) (human), Q14116
Experiment: cell-based or functional assay
Conditions: scale: fold molar concentration against #125-2HmAb

molar concentration needed for the same IL-18 neutralisation as #125-2HmAb (IFN-γ induction in KG-1 cells): 2
B1: scFv peptide with His6 of Example 2-2, encoded by pEscFv#125-2H.HT (SEQ ID NO 10) (scFv)
scFv: EIQLQQSGPELVKPGASVKVSCKASGYSFTDYFIYWVKQSHGKSLEWIGDIDPYNGDTSYNQKFRDKATLTVDQSSTTAFMHLNSLTSEDSAVYFCARGLRFWGQGTLVTVSAGGGGGGSGGGGSGGGGSDIQMTQSPSSLSASLGERVSLTCRASQDIGSKLYWLQQEPDGTFKRLIYATSSLDSGVPKRFSGSRSGSDYSLTISSLESEDFVDYYCLQYASSPYTFGGGTKLAIKHHHHHH
